Reference: the nanobody polyreactivity screen of Harvey et al. (2022)

Assay: yeast display, Sf9 membrane polyspecificity reagent, FACS + sequencing; frameworks hold sequencing errors
Summary of the method: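 After 36–48 hours of galactose induction, yeast (Saccharomyces cerevisiae BJ5465) displaying a synthetic nanobody library were stained at 4 °C for 1 hour with 10% biotinylated, detergent-solubilized Sf9 membrane reagent. Streptavidin microbeads enriched the stained cells before FACS sorting into low and high (top ~1%) gates on anti-HA and streptavidin fluorescence. Each clone's polyreactivity label reflects its gate of origin.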

Sequence | polyreactivity (PSR sort gate)
QVQLVESGGGLVQAGGSLRLSCAASGSLFYPYAMGWYRQAPGKERELVAAIDLSGGSTYYADAVKGRFTISRDNAKNTVYLQMNSLKPEDTAVYYCAADYGYTYAYDYWGQGTQVTVSS | low polyreactivity
QVQLVESGGGLVQAGGSLRLSCAGSGRIFDLYTMGWYRQAPGKERELVAAIRWSDGSTYYADSVKGRFTISRDNAKNTVYLQINSLKPEDTAVYYCAADTRTSYYNDDYDYWGQGTQVTVSS | low polyreactivity
QVQLVESGGGLVQAGGSLRLSCAASGLTFYYYAMGWYRQAPGKERELVAAISIGGSTDYADSVKGRFTISRDNAKNTVYLQMNSLKPEDTAVYYCNVDDNSEYDYWGQVTQVTVSS | low polyreactivity
QVQLVESGGGLVQAGGSLRLRCASSGITFTLNAMGWYRQAPGKERELVAAISGSGGRTYYADSVKGRFTISRDNAKNTVYLQMNSLKPEDTAVYYCAAAVLDRYTRYIWYIYDYWGQGTQVTVSS | high polyreactivity
QVQLVESGGGLVQAGGSLRLSCAASGLTFSKYVMGWYRQAPGKERELVAAITWSGGRTYYADSVKGRFTISRDNAKNTVYLQMNSLKPEDTAVYYCNRKLKGLGYEYDYWGQGTQVTVSS | high polyreactivity
QVQLVESGGGLVQAGGSLRLSCAASGITFSGNAMGWYRQAPGKEREFVAAITFSGGRTYYADSVKGRFTISRDNAKNTVYLQMNSLKPEDTAVYFCAAETPRGRWLGDYWGQGTQVTVSA | low polyreactivity
QVQLVESGGGLVQAGGSLRLSCAASGRIFRAYTMGWYRQAPGKARELVAAISRSTGSTNYADSVKGRFTISRDNAKNTVYLQMNSLKPEDTAVYFCNARSRWYLVGQQSTRLDYWGQGTQVTVSS | high polyreactivity
QVQLVESGGGLVQAGGSLRLSCAASGRIFSVYAMGWYRQAPGKERELVAAITRVGSTNYADSVKGRFTISRDNAKNTVYLQMNSLKPEDTAVYYCAAVARTVPSYSYNYWGQGTQVTVSS | high polyreactivity
QVQLVESGGGLVQAGGSLRLSCAASGSSFNYNTMGWYRQAPGKERELVADISWSGGSTYYADSVKGRFTISRDNAKNTVYLQMNSLKPEDTAVYYCAADFGLFPYVGTGYYYWGQGTQVTVSS | low polyreactivity
QVQLVESGGGLVQAGGSLSLSCAASGSIFSYYDMGWYIQAPGKERELVAGISRGGSTNYADSVKGRFTISRDNAKNTVYLQMNSLKPEDPAVYYCNADYIFWLTLFDYWGQGTQVTVSS | low polyreactivity
QVQLVESGGGIFQAGGSLRLSCAASGSTFDYNAMGWYRQAPGKERELVADITGSGASTSYADSVKGRFTISRDNEKNTVYLQMKILKPEDTAVYYCNADDSYFYELYGYWGQGTQVTVSS | low polyreactivity
QVQLVESGGGLVQAGGSLRLSCAASVFLPYTMGWYRQAPGKERELVAAITRGGSTYYADSVKGRFTISRDNAKNTVYLQMNSLKPEDTAVYYCAKRSTFAWRGYDYWGQGTQVTVSS | high polyreactivity
QVQLVESGGGLVQAGGSLRLSCAASGSTLSRYAMGWYRQAPGKERELVATITRRGGSTFYADSVKGRFTISRDNAKNTVYLQMNSLKPEDTAVYYCAVGRLFWGQGTQVTVSS | low polyreactivity
QVQLVESGGGLVQAGGSLRLSCAASGSIFDYNAMGGYRQAPGKERELVAAISSGGSTYYADSVKGRFTISRDNAKNTVNLQMNSLKPEDTAVYYCAVKFWVVIQFDYWGQGTHVTVSS | low polyreactivity
QVQLVESGGVLVQAGGSLRLSCAASGFIFVRYAMGWYRQAPGKERELVAAITSSDSNTNYADSVKGRFTISRDNAKNTVYLQMNSLNPEDTAVYYCNARIYTRRYVPHYGFNYWGQGTQVTVSS | low polyreactivity
QVQLVESGGGLVQAGGSLRLSCAASGNTFISYAMGWYRQAPGKERELVAAITWSGGSTYYADSVKGRFTISRDNAKNTVYLQMNSLKPEDTAVYYCAKFTHNYYYWGQGTQVTVSS | high polyreactivity
QVQLVESGGGLVQAGGSLRLSCASSGRIFSWYTMGWNRQAPGKVSELVPVITSGGTTKYADSEKGRFTISRDNAKNTVYLQMNSLKPEDTAVYYCNVAGRDYAVRWGSFDYWGQGTQVTVSS | low polyreactivity
QLQLVESGRGLVQAGGSLRLSCAPSGRILVLIAMGWYRQATGKERELVADITSGGSTYYADSVKGRFTISRDNAKKTVYLQMNSLKKEDTAVYYCAADWNTYPDYQQSYFVCYEYNYWGQGTQVTVSS | low polyreactivity
QVQLVESGGGVVQAGGSLRLSCAASGSTFYPNAMGWYRQAPGKERELVAAISRGTRTKYADSVKGRFTISRDNAKNTVYLQMNSLKPEDTAVYYCAADTGTGLDWGQGTQVTVSS | high polyreactivity
QVQLEESGGGLVQAGGSLRLSCAASGLIFQVYALGWYRQAPGKERELVASISWNGGSTYYADSVKGRFTISRDNAKNTVYLQMNSLKPEDTAVYYCNKYPVSLWYYSKDYTYDYWGQGTQVTVSS | low polyreactivity
QVQLVESGGGLVQAGGSLRLSCAASGSIVYVYAMGWYRQAPGKEREVVAAINTSGGSTYADSVKGRFTISRDNAKNTVYLQMNSLKPEDTAVYYCAADGYYEYTWGEYDSWGQGTQVTVSS | low polyreactivity
QVQLVESGGGLVQAGGSLRLSCAASGSTFAINAMGWYRQAPGTERELVAAIRYSTGRTYYADSVKGRFTISRDNAKNTVYLQMNSLKPEDTAVYYCAALGFTKYGSRFDYWGQGTQVTVSS | high polyreactivity

Sequence | polyreactivity (PSR sort gate)
QVQLVESGGGLVQAGGSLRLSCAASVYIFVPYTLGWYRQAPGKERELVAAITRSGGSTYYADSVKGRFTISRDNAKNTVSLQMNSLKPEDTAVYYCATVGGPRWVRAQYDYWGQGTQVTVSS | high polyreactivity
QVQLVESGGGLVQAGGSLRLSCAASGITSYYYTMGWYRQAPGKERELVAAITSGGSTYYADSVKGRFTISRDNAKNSVYLQMNSLKPEDTAVYYCTADNPRYRGSKYGPYDDYNYWGQGTQVTVSS | low polyreactivity
QVQLVESGGGLVQAGGSLRLSCAASGSIFPRNAMGWYRQAPGKERELVAGISSGGSTNYADSVKGRFTISRDNAKNTVYLQMNSLNPEDTAVYYCAARQWIRNLGFGYSIYNYWGQGTQVTVSS | high polyreactivity
QVQLVESGGGLVQAGGTLRISCAPSGSTCVVINMGWYRQAPGKERELVAAISYSGGSTYADSVKGRFTISRDNAKNTVYLQMNSLKLEDTAVYYCAARHYWWYDYWGQGTQVTVSS | low polyreactivity
QVQLVESGGGLVQAGGSLRLSCAASGGTFSCYAMGWYRQAPGKERELVAAITRRGGRTYYADSVKGRFTISRDNAKNTVYLQMNSLKPEDTAVYYCNTDYKFDYVGFSTWVVRYDYWGQGTQVTVSS | low polyreactivity
QVQLVESGGGLVQAGGSLRLTCAASGSIFDFYAMGRYRQAPGQERELVAAISGSGGSTYYADSVKGRFTISRDNGKNTVYFQMDSLKPEDTAVYYCSYYYWGQGTQVNVSS | low polyreactivity
QVQLVESGAGLVQAGGRLRLRCDASGFIFRYYAMGWYRQAPGKERELVAAISESGASTYYADSVKGRFTISRDNAKNTVYLQMNSLKPEDTAVYYCAAKPRKSGPYYFYDLNYWGQGTQVTVSS | high polyreactivity
QVQLVESGGGLVQAGGSLRLSCAASGFIFRHNAMGWYRQAPGKEREFVAAISISGGSTYYADSVKGRFTISRDNAKNTVDLQMNSLKPEDTAVYYCNARSLGNTYLLYDYWGQGTQVTVSS | low polyreactivity
QVQLVESGGGLVQAGGSLRLSCAASGRISGVNAMGWYRQAPGKERELVATISGSGGRTYYADSVKGRFTISRDNAKNTVYLQMNSLKPEDTAVYYCAAGPPRADYDYWGQGTQVTVSS | low polyreactivity
QVQLVESGGGLVQAGGSLRLSCAASGRIILDYAMGWYRQAPGKERELVAAITWRGGSTNYADSVKGRFTISRDNAKNTVYLQMNSLKPEDTAVYYCNADPDDQYDYWGQGTQVTVSS | low polyreactivity
QVQLVESGGGLVQAGGSLRLSCAASGSIFYIYVMGWYRQAPGKERELVAAISSGGTTNYADSVKGRFTISRDNAKNTVYLQMNSLIPEDTAVYYCAADVLIARYPGYSYEYWGQGTQVTVSS | low polyreactivity
QVHLVESGGGLVQAGGSLRLSCAASGNIIYWNGMGWYRKAPGKEREFVADITASGGSTYYADSVKGRFTISRDNAKNTVYLQMNSLIPEDTAVYYCAAQGVDSYYENDYWGQGTQVTVSS | high polyreactivity
QVQLVESGGGLVQAGGSLRLSSAASGRIFQKYAMGWYRPAPGKERELVAAISSGDSTYADSVKGRFTISRDNAKNTVYLQMNSLKPEDTAVYYCAADDRWDYDYWGQGTQGTVSS | low polyreactivity
QVQLVESGGGLVQAGGSLRLSCAASGRISVYNMGWYRQAPGKERELVAAISNGGSTNYADSVKGRFTISRDNAKNTVYLQMNSLKPEDTAVYYCNRRVPYSFYSRGYYYWGQGTQVTVSS | high polyreactivity
QVQLVESGGGLVQAGGSLRLSCASSGSIFYGYAMGWYRQAPGKERELVAAINNSGVSTYYADSVQGRFTISRDNAKNTVYLQMNSLKPEDTAVYYCNKAGAYPYHYDYWGQGTQGTVSS | low polyreactivity
QVQLVESGGGLVQAGGSLRLSCAASGSTFGANPMGWYRQAPGKEREFVAAISGSGTTTYYADSVKGRFTISRDNAKNTVYLQMNSLKTEDTAVYYCAKTRKAHWLEYWGQGTQVTVSS | low polyreactivity
QVQLVESGGGLVQAGGSLRLSCAASGSTIDINTKGWYRQAPGKEREFVAAITDSDDSTYYADSVKGRFTISRDNAKNTVYLQMNSLKPEDTAVYYCATDPDYVLYRTAYYEYDYWGQGTQVTVSS | low polyreactivity
QVQLVESGGGLVQAGGSLRLSCAASGSTLDVYAMGWYRQAPGKERELVAAISWSVGSTYYAYSVKGRFKISRDNAKNTVYLQINRLKPEDTAVYNCAAEQYEYAYDGYDYWGQGTQVTVSS | high polyreactivity
QVQLVESGGGLVQAGGSLRLSCAASGSIFADYAMGWYRQAPGKERELVAVITSGGRTNYADSVKGRFTISRDNAKNTVYLQMNSLKPEDTAVYYCDTRRYRYYAYRNYYYWGQGTQVTVSS | high polyreactivity
QVQLVESGGGLVQAGGSLRLSCAASGSIFRSYAMGWYRQAPGKERELVAAITSRGSSTYYADSVTGRFTISRDNAKNTVYLQMNSLKPEDSAVYYCATVFPYSARDGLDYWGQGTQVTVSS | high polyreactivity
QVHLVESGGGLVQAGGSLRLSCAASGLTFRYYAMGWYRPAPGKERELVAAISWSGGSTYYADSVKGRFTISRDNAKNTVYLQMNSQKPEDTAVYDCNTVGRSSSLSVFLIGYGYWGQATQVTVSS | high polyreactivity
